In patent US20100280227A1 (Genentech, published 2010):

T1: human FcγRIIa extracellular domain, His-tagged GST fusion (human, UniProt P12318 34-217)
T1 construct: extracellular domain; also called hFcgRIIa; Human IIa
T1 sequence (looked up): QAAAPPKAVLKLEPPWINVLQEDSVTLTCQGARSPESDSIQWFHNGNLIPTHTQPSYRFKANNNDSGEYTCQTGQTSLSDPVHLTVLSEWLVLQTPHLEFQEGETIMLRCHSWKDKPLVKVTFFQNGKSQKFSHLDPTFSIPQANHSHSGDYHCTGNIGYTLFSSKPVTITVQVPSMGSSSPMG

T2: human FcγRIIb extracellular domain, His-tagged GST fusion (human, UniProt P31994 43-217)
T2 construct: extracellular domain; also called hFcgRIIb; Human IIb
T2 sequence (looked up): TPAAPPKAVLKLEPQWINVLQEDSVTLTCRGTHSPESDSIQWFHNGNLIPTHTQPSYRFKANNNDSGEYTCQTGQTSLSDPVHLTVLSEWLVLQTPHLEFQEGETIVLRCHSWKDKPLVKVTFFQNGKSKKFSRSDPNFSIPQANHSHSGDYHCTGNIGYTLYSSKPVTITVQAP

T3: mouse FcγRI extracellular domain, His-tagged GST fusion (mouse, UniProt P26151 25-297)
T3 construct: extracellular domain; also called Mouse I
T3 sequence (looked up): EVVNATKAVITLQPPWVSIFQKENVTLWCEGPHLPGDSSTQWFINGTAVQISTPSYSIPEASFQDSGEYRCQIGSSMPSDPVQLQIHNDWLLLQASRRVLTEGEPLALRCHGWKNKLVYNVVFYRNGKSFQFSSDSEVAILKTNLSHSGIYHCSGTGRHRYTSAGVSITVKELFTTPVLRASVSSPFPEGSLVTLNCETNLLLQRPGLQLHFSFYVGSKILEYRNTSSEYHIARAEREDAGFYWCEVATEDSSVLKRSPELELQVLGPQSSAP

T4: mouse FcγRII extracellular domain, His-tagged GST fusion (mouse, UniProt P08101 30-210)
T4 construct: extracellular domain; also called Mouse II
T4 sequence (looked up): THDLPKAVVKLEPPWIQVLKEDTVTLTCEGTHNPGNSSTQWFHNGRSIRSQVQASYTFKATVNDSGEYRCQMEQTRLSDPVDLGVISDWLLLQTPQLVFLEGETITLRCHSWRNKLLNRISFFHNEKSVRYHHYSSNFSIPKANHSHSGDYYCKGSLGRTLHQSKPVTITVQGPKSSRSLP

T5: mouse FcγRIII extracellular domain, His-tagged GST fusion (mouse, UniProt P08508 31-215)
T5 construct: extracellular domain; also called Mouse III
T5 sequence (looked up): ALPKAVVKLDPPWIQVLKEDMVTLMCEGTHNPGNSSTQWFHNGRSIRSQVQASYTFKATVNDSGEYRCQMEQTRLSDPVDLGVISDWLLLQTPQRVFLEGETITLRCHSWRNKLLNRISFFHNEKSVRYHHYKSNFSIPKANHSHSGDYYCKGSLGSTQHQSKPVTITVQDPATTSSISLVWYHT


Tests used:
[1] = target: T6, human BR3 expressed on cells (human, UniProt Q96RJ3 1-184); assay: cell-based or functional assay
[2] = target: T7, human FcγRI extracellular domain, His-tagged GST fusion (human, UniProt P12314 16-292); assay: ELISA, captured FcgR-GST; EC50herceptin/EC50sample
T7 construct: extracellular domain; also called hFcgRI; Human I

[3] = target: T1, human FcγRIIa extracellular domain, …; assay: ELISA, captured FcgR-GST; EC50herceptin/EC50sample
[4] = target: T2, human FcγRIIb extracellular domain, …; assay: ELISA, captured FcgR-GST; EC50herceptin/EC50sample
[5] = target: T3, mouse FcγRI extracellular domain, …; assay: ELISA, captured FcgR-GST; EC50herceptin/EC50sample
[6] = target: T4, mouse FcγRII extracellular domain, …; assay: ELISA, captured FcgR-GST; EC50herceptin/EC50sample
[7] = target: T5, mouse FcγRIII extracellular domain, …; assay: ELISA, captured FcgR-GST; EC50herceptin/EC50sample
[8] = target: T6, human BR3 expressed on cells; assay: BJAB cells, direct binding
human FcRn [9] = target: T8, human FcRn (human, UniProt P55899 24-297; P61769 21-119, limits assumed); assay: SPR, FcRn on chip, kinetic, pH 6
T8 construct: construct not described; also called huFcRn

cynomolgus FcRn [10] = target: T9, cynomolgus FcRn (cynomolgus monkey, UniProt Q8SPV9 24-297; Q8SPW0 21-119, limits assumed); assay: SPR, FcRn on chip, kinetic, pH 6
T9 construct: construct not described; also called cynoFcRn; cyno FcRn

[11] = target: T10, human BR3 extracellular domain (human, UniProt Q96RJ3 1-61); assay: SPR, IgG on chip, BR3 ECD in solution
T10 construct: biotinylated where used as tracer; also called hBR3-ECD; BR3-ECD

[12] = target: T6, human BR3 expressed on cells; assay: BJAB cells, competition with biotin-BAFF
human FcRn [13] = target: T8, human FcRn; assay: SPR, FcRn on chip, kinetic, pH 6.0 (KDa)
cynomolgus FcRn [14] = target: T9, cynomolgus FcRn; assay: SPR, FcRn on chip, kinetic, pH 6.0 (KDa)
human FcRn [15] = target: T8, human FcRn; assay: SPR, FcRn on chip, equilibrium, pH 6.0 (KDb)
cynomolgus FcRn [16] = target: T9, cynomolgus FcRn; assay: SPR, FcRn on chip, equilibrium, pH 6.0 (KDb)
[17] = target: T7, human FcγRI extracellular domain, …; assay: ELISA, captured FcgR-GST; A450 ratio to 9.1RF
[18] = target: T1, human FcγRIIa extracellular domain, …; assay: ELISA, captured FcgR-GST; A450 ratio to 9.1RF
[19] = target: T2, human FcγRIIb extracellular domain, …; assay: ELISA, captured FcgR-GST; A450 ratio to 9.1RF
[20] = target: T7, human FcγRI extracellular domain, …; assay: ELISA, receptor-His-GST captured by anti-GST, uncomplexed IgG
[21] = target: T1, human FcγRIIa extracellular domain, …; assay: ELISA, receptor-His-GST captured by anti-GST, IgG complexed with anti-kappa F(ab')2

Row | ADCC activity relative to 9.1wt (relative EC50 values) [1] [fold] | ADCC on BJAB cells (LDH release), EC50 [1] [nM] | fold improvement in binding vs Herceptin [2] [fold] | fold improvement in binding vs Herceptin [3] [fold] | fold improvement in binding vs Herceptin [4] [fold] | fold improvement in binding vs Herceptin [5] [fold] | fold improvement in binding vs Herceptin [6] [fold] | fold improvement in binding vs Herceptin [7] [fold] | Binder | other results
1 | 2.8 | < 1 | 0.7 | 0.2 | 0.4 | 2.5 | 0.4 | 0.6 | 9.1RF S298A/E333A/K334A IgG (antibody, Fc variant of 9.1RF, transient CHO expression; copies: 2 + 2) light: DIQMTQSPSSLSASVGDRVTITCKSSQSLLYSSNQNNYLAWYQQKPGKAPKLLIYWASTRESGVPSRFSGSGSGTDFTLTISSLQPEDFATYYCQQYYTYPYTFGQGTKVEIKRTVAAPSVFIFPPSDEQLKSGTASVVCLLNNFYPREAKVQWKVDNALQSGNSQESVTEQDSKDSTYSLSSTLTLSKADYEKHKVYACEVTHQGLSSPVTKSFNRGEC heavy: EVQLVESGGGLVQPGGSLRLSCAASGFTVTAYYMSWVRQAPGKGLEWVGFIRDKANGYTTEYNPSVKGRFTISRDTSKNTFYLQMNSLRAEDTAVYYCAQVRRALDYWGQGTLVTVSSASTKGPSVFPLAPSSKSTSGGTAALGCLVKDYFPEPVTVSWNSGALTSGVHTFPAVLQSSGLYSLSSVVTVPSSSLGTQTYICNVNHKPSNTKVDKKVEPKSCDKTHTCPPCPAPELLGGPSVFLFPPKPKDTLMISRTPEVTCVVVDVSHEDPEVKFNWYVDGVEVHNAKTKPREEQYNATYRVVSVLTVLHQDWLNGKEYKCKVSNKALPAPIAATISKAKGQPREPQVYTLPPSREEMTKNQVSLTCLVKGFYPSDIAVEWESNGQPENNYKTTPPVLDSDGSFFLYSKLTVDKSRWQQGNVFSCSVMHEALHNHYTQKSLSLSPG | –
2 | – | – | 1 | 2.3 | 0.7 | 1.2 | 0.7 | 0.8 | 9.1RF IgG antibody (antibody, produced in CHO cells; also called h9.1-RF; Hu9.1-RF-IgG; copies: 2 + 2) light: DIQMTQSPSSLSASVGDRVTITCKSSQSLLYSSNQNNYLAWYQQKPGKAPKLLIYWASTRESGVPSRFSGSGSGTDFTLTISSLQPEDFATYYCQQYYTYPYTFGQGTKVEIKRTVAAPSVFIFPPSDEQLKSGTASVVCLLNNFYPREAKVQWKVDNALQSGNSQESVTEQDSKDSTYSLSSTLTLSKADYEKHKVYACEVTHQGLSSPVTKSFNRGEC heavy: not shown | EC50 [8]: 0.46 nM; koff (human FcRn [9]): 0.0784 s⁻¹; kon (human FcRn [9]): 635000 M⁻¹ s⁻¹; koff (cynomolgus FcRn [10]): 0.192 s⁻¹; kon (cynomolgus FcRn [10]): 1.01e+06 M⁻¹ s⁻¹; Kd [11]: 0.169 nM; koff [11]: 0.000309 s⁻¹; kon [11]: 1.8e+06 M⁻¹ s⁻¹; IC50 [12]: 0.68 nM; Kd (human FcRn [13]): 123 nM; Kd (cynomolgus FcRn [14]): 191 nM; Kd (human FcRn [15]): 118 nM; Kd (cynomolgus FcRn [16]): 186 nM; binding relative to 9.1RF [17]: 1 ratio; binding relative to 9.1RF [18]: 1 ratio; binding relative to 9.1RF [19]: 1 ratio; EC50 (read off the curve) [20]: ~0.006 µg/mL; EC50 (read off the curve) [21]: ~1 µg/mL
3 | 3 | < 1 | 0.6 | 0.2 | 0.7 | 1.9 | 1.3 | 1.2 | 9.1RF S298A/K326A/E333A/K334A IgG (antibody, Fc variant of 9.1RF, transient CHO expression; copies: 2 + 2) light: DIQMTQSPSSLSASVGDRVTITCKSSQSLLYSSNQNNYLAWYQQKPGKAPKLLIYWASTRESGVPSRFSGSGSGTDFTLTISSLQPEDFATYYCQQYYTYPYTFGQGTKVEIKRTVAAPSVFIFPPSDEQLKSGTASVVCLLNNFYPREAKVQWKVDNALQSGNSQESVTEQDSKDSTYSLSSTLTLSKADYEKHKVYACEVTHQGLSSPVTKSFNRGEC heavy: EVQLVESGGGLVQPGGSLRLSCAASGFTVTAYYMSWVRQAPGKGLEWVGFIRDKANGYTTEYNPSVKGRFTISRDTSKNTFYLQMNSLRAEDTAVYYCAQVRRALDYWGQGTLVTVSSASTKGPSVFPLAPSSKSTSGGTAALGCLVKDYFPEPVTVSWNSGALTSGVHTFPAVLQSSGLYSLSSVVTVPSSSLGTQTYICNVNHKPSNTKVDKKVEPKSCDKTHTCPPCPAPELLGGPSVFLFPPKPKDTLMISRTPEVTCVVVDVSHEDPEVKFNWYVDGVEVHNAKTKPREEQYNATYRVVSVLTVLHQDWLNGKEYKCKVSNAALPAPIAATISKAKGQPREPQVYTLPPSREEMTKNQVSLTCLVKGFYPSDIAVEWESNGQPENNYKTTPPVLDSDGSFFLYSKLTVDKSRWQQGNVFSCSVMHEALHNHYTQKSLSLSPG | –
